This note sets out measurements from US11396522B2, “Bis-acetal-based substrates for imaging exo-glycosidase activity” (ALECTOS THERAPEUTICS INC., priority 2017, dated 2022).

Holding throughout (format): biochemical, human
Substrate in data set [1]: CC(=O)N[C@H]1[C@H](O[C@@H](OCCOCCn2cc(CNC(=O)c3ccc(/N=N/c4ccc(N(C)C)cc4)cc3)nn2)[C@@](C)(Br)C(=O)NCCNc2cccc3c(S(=O)(=O)O)cccc23)O[C@H](CO)[C@@H](O)[C@@H]1O
In words: In vitro kinetic assay with hOGA. The settings on record: other: PBS, 37° C., recombinant hOGA. How it is done:
(§1) For some experiments, fluorescence kinetic assays were performed using a Varian Cary Eclipse Spectrophotometer set for 335/493 nm excitation/emission wavelengths. Slits were set at 10 nm and the detector was set on Medium voltage. Enzymatic reactions with human OGA were carried out in PBS at 37° C. and were started by addition of hOGA (WT, Full-length, expressed in E. coli. as previously described) in a total volume of 160 μL (Starna sub-micro Fluorometer cuvette). For measurements of rates using different concentrations of substrates, a hOGA concentration of 100 nM was used. For hOGA titration, 25 μM of Glyco-BABS were added to various concentration of hOGA. […] EDANS standard curve was established using endpoint fluorescence measurements of serial dilutions of EDANS in the relevant buffer using the same instrument parameters. Inner-Filter effect measurements were carried out in cuvette by measuring fluorescence of several concentrations of EDANS in presence of various concentrations of GlcNAc-BABS. Kinetics with Glc-BABS and GBA enzymes (GBA1 and GBA3 purchased from R&D Systems), kinetics with GALC (R&D systems) and Gal-BABS, pH stability, quenching efficiency, some inner-filter effect experiments and lysates experiments were carried out using a Molecular Devices SpectraMax i3× plate reader. […]

Substrate in data set [2]: CC(=O)N[C@H]1[C@H](O[C@@H](OCCOCCn2cc(CNC(=O)c3ccc(/N=N/c4ccc(N(C)C)cc4)cc3)nn2)[C@@](C)(O)C(=O)NCCNc2cccc3c(S(=O)(=O)O)cccc23)O[C@H](CO)[C@@H](O)[C@@H]1O
In words: In vitro kinetic assay with hOGA. The following applies: other: PBS, 37° C., recombinant hOGA. On the procedure: as §1

Substrate in data set [3]: CN(C)c1ccc(/N=N/c2ccc(C(=O)NCc3cn(CCOCCOC(CC(=O)NCCNc4cccc5c(S(=O)(=O)O)cccc45)O[C@@H]4O[C@H](CO)[C@@H](O)[C@H](O)[C@H]4O)nn3)cc2)cc1
In words: In vitro kinetic assay with GBA1. The settings on record: other: 20 nM GBA1, initial rates.

B1: human O-GlcNAcase (hOGA) (Homo sapiens) (protein)
chain: MVQKESQATLEERESELSSNPAASAGASLEPPAAPAPGEDNPAGAGGAAVAGAAGGARRFLCGVVEGFYGRPWVMEQRKELFRRLQKWELNTYLYAPKDDYKHRMFWREMYSVEEAEQLMTLISAAREYEIEFIYAISPGLDITFSNPKEVSTLKRKLDQVSQFGCRSFALLFDDIDHNMCAADKEVFSSFAHAQVSITNEIYQYLGEPETFLFCPTEYCGTFCYPNVSQSPYLRTVGEKLLPGIEVLWTGPKVVSKEIPVESIEEVSKIIKRAPVIWDNIHANDYDQKRLFLGPYKGRSTELIPRLKGVLTNPNCEFEANYVAIHTLATWYKSNMNGVRKDVVMTDSEDSTVSIQIKLENEGSDEDIETDVLYSPQMALKLALTEWLQEFGVPHQYSSRQVAHSGAKASVVDGTPLVAAPSLNATTVVTTVYQEPIMSQGAALSGEPTTLTKEEEKKQPDEEPMDMVVEKQEETDHKNDNQILSEIVEAKMAEELKPMDTDKESIAESKSPEMSMQEDCISDIAPMQTDEQTNKEQFVPGPNEKPLYTAEPVTLEDLQLLADLFYLPYEHGPKGAQMLREFQWLRANSSVVSVNCKGKDSEKIEEWRSRAAKFEEMCGLVMGMFTRLSNCANRTILYDMYSYVWDIKSIMSMVKSFVQWLGCRSHSSAQFLIGDQEPWAFRGGLAGEFQRLLPIDGANDLFFQPPPLTPTSKVYTIRPYFPKDEASVYKICREMYDDGVGLPFQSQPDLIGDKLVGGLLSLSLDYCFVLEDEDGICGYALGTVDVTPFIKKCKISWIPFMQEKYTKPNGDKELSEAEKIMLSFHEEQEVLPETFLANFPSLIKMDIHKKVTDPSVAKSMMACLLSSLKANGSRGAFCEVRPDDKRILEFYSKLGCFEIAKMEGFPKDVVILGRSL
notes: started by addition of hOGA (WT, Full-length, expressed in E. coli. as previously described); made in house; host or cells: E. coli
Take B1: the kcat/Km in data set [1] worked out at 263 M⁻¹ s⁻¹; in data set [2], 519 M⁻¹ s⁻¹.

B2: GBA1 (Homo sapiens) (protein)
chain: ARPCIPKSFGYSSVVCVCNATYCDSFDPPTFPALGTFSRYESTRSGRRMELSMGPIQANHTGTGLLLTLQPEQKFQKVKGFGGAMTDAAALNILALSPPAQNLLLKSYFSEEGIGYNIIRVPMASCDFSIRTYTYADTPDDFQLHNFSLPEEDTKLKIPLIHRALQLAQRPVSLLASPWTSPTWLKTNGAVNGKGSLKGQPGDIYHQTWARYFVKFLDAYAEHKLQFWAVTAENEPSAGLLSGYPFQCLGFTPEHQRDFIARDLGPTLANSTHHNVRLLMLDDQRLLLPHWAKVVLTDPEAAKYVHGIAVHWYLDFLAPAKATLGETHRLFPNTMLFASEACVGSKFWEQSVRLGSWDRGMQYSHSIITNLLYHVVGWTDWNLALNPEGGPNWVRNFVDSPIIVDITKDTFYKQPMFYHLGHFSKFIPEGSQRVGLVASQKNDLDAVALMHPDGSAVVVVLNRSSKDVPLTIKDPAVGFLETISPGYSIHTYLWRRQ
notes: purchased R&D Systems
For B2, in data set [3], the kcat/Km was determined as 0.00013 µM⁻¹ s⁻¹.

As usually defined, the kcat/Km is the turnover number divided by the Michaelis constant.
